Reference: a protein production outcome set (Wang et al. 2014)

Assay: label from the status in PepcDB records

Sequence | protein production
MSAEKSSADTAKKTLTIYSTMSTDSERDTFRKLAAAFEKEHSDIHVSLHFPGNDYENMMRVRMAANDLPDLFDTHGWGKIRYGEYTADLRDMKWTQDLDPNLNSILKNKSGKVYAYPINQAKDGLAYNRNILDRYGIAPPETMDDFIKALRTIKEKSKGSIVPFWFAGYDKSSFAQYYDQFATPLLITDPAHNEKKQLINGTFQWSKFTYLSEILKQMQKEKLINIDAVTAKKSQLIELMAQNKIAFTMQGGTLGQDVAQINPNVKVGIIPTPAIHPGDDPIWIGGERYTLAAWKDSPQLKEAKDFIAFMARPANAKQMAEATSLPSGLTNVKADIFYANDYEYYQDVKVEPYFDRLYLPNGMWDVLGTVGQELAADILAPQDISQKLGREYKRLREQSETQGAENNELEHHHHHH | not failed
MSAELTRARQQLSQIRGYLRQGKVMPAAQAFQSALVIVLKSPLMRAEREEFERMFADAAHHLNNDAGLRALFPLKIEYLPGSEKELLDIIRELVTAVNNAAVTEAQEQLAALDARKAAGLEQGQAHLDAQEFDAAAAVFRQLSHEFKDDPQLRGEIGERFLKAGRYEEAFDYLAQALDLSPESIHLYNRIGIALRRLGRFETGEKYYLRALQYAGHDPNLLFNLGRLYVDWQRWDKVAKAAAAALRVNPAFDEARKMLEFAERKLQR | failed
MSAEQDKEPIALKRVRGGDSGLDGLGGPNIQLGSPDKKKRKANTQGSSFPPLSEYAPPPNPNSDHLVAANPFDDSYNTISYKPLPSSNPYLGPGYPGFGGYSTFRMPPHVPPRMSSPYCGPYSLRNQPHPFPQNPLGMGFNRPHAFNFGPHDNSNFGNPPYNNVLTQDINMPGQHFRQGSAENFSQIPPQNVGQVSNPDLASNFAPGNNSNFTSPLETNHSFIPPPNAFGQAKAPLPKQDFTQGATKTPNQNSSTHPPHLNMEDPVNQSNVELKNVNRNNVVQENSRSGSAEATNNHANGTQNKPRQPRGAADLCTPDKSRKFSLLPSRHGHSSSDPVYPCGICTNEVNDDQDAILCEASCQKWFHRICTGMTETAYGLLTAEASAVWGCDTCMADKDVQLMRTREAFGPPAVGGDA | not failed
MSAFINQAAACAGDHAPRSAAQEARRGLRASLPVLLGFIPFALVLGAQATQKGLSVMEVPLMTGLNFGGGSEFTAIRLWTSPPHLLLIAAMSLLVNSRHLLMGAALAPYLRHVPRRRALAALFFMCDESWALALADAQSRATGRISLGYYLGVSAGLYLTWVVFTAIGAALGPVIGDVERYGFDMAFTAVFLVLLRGMWRGLRASRPWLASLAAAALTYRLMPDGAWYVAAGALAGLACAALTVPKEARA | failed
MSAKIKIIPFGGVRENGKNMYAVDVNGGIYILDCGLKYPENELLGIDVVIPDWTYLRENKDRIVAVFLTHGHADAIGALPYFLSEFNVPVFGSEMTIALAKINVADEPKIKKFDDFHVIDEKTEIDFGDVVVSFFSTTHSIPESLGIDLKTDEGQIIYTGDFKFDQTAKPGYQTDYARLGAIGQAGVLALLSDSANAENPAMNASEQSLAESIEETFHYRDSRVIVACVASNILRIQQVFDAAAKTGRKVCLTGKDLEKIVNTAMELGKLTFDADLLVTTDQLDDLAPNEIVILQTGKMGEPIKAIQRMANKQEKDFNIQAGDLVYITTTPSHAMDTTVAQTRDMVYRAGGEVKAISDELNSSGHAYKRDLQLMLNLMKPKFLIPIQGEYRLLNAHADAAMELGIPADHIFILSKGDVLTYAQGDMGLGEGIDVSDTMIDGIGVGDIGNIVLRDRKVLADDGIFIAVVTIDRKKKQIVADPKITSRGFVYVKANKDLMQESSQIIRKAVQNNLDNKEFDWGHLKQDVREHLSHYLFEQTHRRPVILPVIMEVNQHHRRTTKEKPGAGATNEKPVTKSAPKAKAEQTAKPTHKPRRNRKRRPTKKTTTDNA | failed
MSALPSYTQNGQTITFAFAQPLQLTIVTPEIIRVFINRGEQGESYAIEGHKIQATDFTIESAGDHYIIRTSALTIHLDSERHLDTFDKDGNALITLEHHHHHH | not failed
MSALRTIGALTAREMLKFVRDRSRVLGALAQPLALWLLLGLGFQNTFQPPQGSVGGSYGAFLLPGILALVLLFTAIFSTISIVEERTSGFLQAVLVAPTPRTALVFGTTLGGTLLATVQALLFLGALPLIDLSPGVAGVGMIVAVCLLTGLAFTALGFAIAWRMETTRGFHAVMNLFLLPLWFLSGAMFPVDGAAPVLQVVMWGNPVSYAVSGLRHGFHGFAGTPAALAGPGVCLAVTGAFAVLMTGLAVWQVRRPFFQT | failed
MSANDSAVNESCHCGGCGSSGNGKFLNETPMLDQLESGPWPSFISGFKALAERTEKPMLRGVLDQLEYSYKTKMGYWKGGLVTVDGYGAGIITRYSMIKDKFPEAAEFHTMRIQPAPGLHYNTTMLRELCDIWEKYGSGIITLHGQTGDIMLQGIEQDKVQACFDELNQKGWDLGGAGAGMRTGVSCIGPGRCDNACYDNLKLHLEALKHFSPQVHRPEWNYKLKFKFSGCPNDCTNAIMRSDLAVIGTWRDSIQIDHDEVKAWIAEKGVDALVNNVINRCPTKAIRLQDGDIDISTRDCVRCMHCINAMSKALSPGKDKGIALLIGGKNTLKVGVNMGSLIVPFMKMETDEDREAFIELIEEIIDWWDDAGLDHERIGETIERVGLKQFLDGVGIEYDINQISRPRDNPYFKAKY | failed
MSAPLPLCVIGAGCVGMRHVEVARRSPQIRLTAVVEPVETRRRALAESGLVAVATLEEVPRETRAAIVATPTPDHLATGLAALSRGWAVLVEKPTAGTMDDARVLLGAADRAGLPLYVGHHRRCHPFSRAAREALGGIGDLVGLQGLWSLRKHDSYYAEDWRRQAGAGPLMTNLSHEIDLLRFLVGDMVEVSALTSSARRGLVVPDTAALAFRFADGALGSFLISDAGASPWSFEAACAENPAIAVSGQDYIRITGTAGALEFPSLTRWGRSAPGEIEWSKPLARAAGAGFARVDPLLEQINRFAAVLEGAQDDVLCTGTDGNAALEMTLAAALSGKLGRPVRAHEVPGDYSGI | failed
MSAPQVWPWTNQTPPLKGDPTPEPKPQERPTRLKHPLDAPHSVYGVDKWGKGLIVVTEEGEIGLKNPLRPEADAVSLPGILHDLEQRGIRAPMILRISSYLENEICHINDSFADAIARSGYKGAYRGVFPIKVNQQAQVIDRIVEFGHRYSYGLEAGSKPELVIALAHKLATDALIVCNGVKDAEFVRLAILSRKLGFNTVIVLESPKEADTVIAVYEELGIEPLLGVRVKLTNQISGKWEESSGDRSSFGMNTDQLVRVVDKLRDAGLIHCLKLQHSHLGSQVPDVNDVRRAVGEACRYFTELSAEGVPLTHLDLGGGMGVDYTGEKRATENSINYTVEEYCANVVETVAYAMDEAGIDHPTIVTESGRAVVATSSLLVFNVLESTLYDAPTAPGTEPDDHHLVSDLAAVNGYLTPARLQECWNDATFYRNELRALFRRGYVDLRQMARAERIYLSLMARIKTMVAEVEAETDLDAQMEKIADIYHCNFSLFQSLPDVWAIDQLHPIVPLQMLNEAPDRRAVLSDITCDSDGKVDRFILADGVSPSLPVHSLPEDQDYYLGVFFVGAYQETLGDLHNLFGDTNVVTIDLRADGGFDLLHEQEGDTISEVLSYVEYDPADCVAAFRKLVDGAISNGCLKASERKLIIGAYRDSINGYTYYE | failed
MSAQEPWTAATAKGTALKNTTLLKALTIGILSILALIPLGIIMDLTSDREMLYHSVVEEIGRSWGEQQTLSGPALVIPYRYFVMEEEVSNDGKTRREVKRTYQDELVILPKKLALDLDLKHDFRTRGIYQSLVYSAALKGQADFSLNSYDIPNLIALDNKNARLVFGVSSNQAIDKVEKIEIKGDSALLSGSLMSGTGLTTGGLEKGFNQGIQVSEASDFSVNFAMTLRGSQSISALPLGEQTLINIQADWPHPSFKGLLPAEREINAKGFTASWNISHLTRNYPQEFVKSNQSTLTEVVANAILFEPVTHYGKIDRSVKYGLLFIVLTFIMLFIFELGQKTSLSIVQYILVGSAMALFYLLLLSLSEHLAFLQAYLIAACIPVLSVSTYVGSATASLKRGVIVGTMLVSLYAVLYSILQLEDYALLMGTGLLVVVLLILMFVTRHQSKNTAQ | not failed
MSARSLYQDTAVAALRDDLALALCAAAHHGLGEGVCNHFSVALPGQAGAFLLNPRGLMWSEVRAEDIVLVDAAGNKLAGRHEVEPTAMFIHAAIHQVAGKACVLHTHMPYATALTLTEARMLDTTLSQNAMRFHGRVAADRRYNGLALDAAEGERIARAMDGADIAFLGNHGVVVCGERIDYAFDDLYYLERACCAQVLAESSGRPLVPLDAALAASVAGQARSERLQSTLFFEALRRALGLEHHHHHH | failed
MSASAHIAQPDTRQQSRSDTPQAVAALAGRVLLSAIFLLSGVSKLAAPAMMIGYIGSVGLPFPQLALALAVIVEIGGGLALVAGWRTRTVAALLALFSVVTALAFHNALGDQNQFIHFFKNLAMAGGLLQVVAFGAGRFSLDARRR | failed
